Measured values taken from publication PMC4861070 (ACS chemical biology, 2016).
Square brackets hold non-standard residues; d marks the D form. Ends that are not written are not given here. pY = N[C@@H](Cc1ccc(OP(=O)(O)O)cc1)C(=O)O; Lys(Me3) = C[N+](C)(C)CCCC[C@H](N)C(=O)O; pS = N[C@@H](COP(=O)(O)O)C(=O)O

What was measured:
[1] = target: H3K9me3S10ph peptide (Homo sapiens) (UniProt P68431); conditions: cited from earlier work
[2] = target: H3K9me3 peptide (Homo sapiens) (UniProt P68431); conditions: cited from earlier work
[3] = target: Tudor domain of human PHF1 (aa 14–87) (human, UniProt O43189 14-87); assay: NMR titration
[4] = target: T1, BRPF1 PWWP domain (aa 1064–1214) (UniProt P55201 1064-1214); assay: NMR titration
T1 sequence (looked up): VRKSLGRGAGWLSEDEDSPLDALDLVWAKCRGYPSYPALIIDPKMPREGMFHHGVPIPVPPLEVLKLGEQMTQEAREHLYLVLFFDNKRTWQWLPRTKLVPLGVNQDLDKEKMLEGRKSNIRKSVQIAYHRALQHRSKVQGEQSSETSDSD

Tudor domain of human PHF1 (aa 14–87), sequence (O43189 14-87): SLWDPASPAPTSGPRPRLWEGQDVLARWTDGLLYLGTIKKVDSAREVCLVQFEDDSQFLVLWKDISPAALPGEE

ATRX ADD (from UniProt P46100)
Kd [1]: 0.19 µM | Kd [2]: 0.11 µM

KSAPSTGGV[Lys(Me3)]KPHRYRPGT (peptide, UniProt P84243 28-46, looked up) [histone H3.3K36me3 peptide (residues 27–45 of H3.3)]
Kd [3]: 37 µM | Kd [4]: 3900 µM

KSAP[pS]TGGV[Lys(Me3)]KPHRYRPGT (peptide, UniProt P84243 28-46, looked up) [histone H3.3S31phK36me3 peptide (residues 27–45 of H3.3)]
Kd [3]: 260 µM | Kd [4]: 2300 µM

KSAPSTGGV[Lys(Me3)]KPHR[pY]RPGT (peptide, UniProt P84243 28-46, looked up) [histone H3.3K36me3Y41ph peptide (residues 27–45 of H3.3)]
Kd [3]: 480 µM | Kd [4]: 1800 µM
